# No end group written: not given here.
# Columns and labels:
# [1] = biological target: T1, Mas receptor (Homo sapiens, UniProt P04201); assay: Calcium flux in CHO-K1 cells co-transfected with Mas receptor and Gα16; type: cell-based; settings: for ability to induce calcium flux, P61-related peptides compared: dose response; for ability to induce calcium flux, P33 monomer, dimer and derivatives compared: 0.1, 1, 10, 100, 1000 and 10000 nM; for EC50: doses 10-3000 nM, highest response not reached
# T1 construct: expressed in transfected cells; host or cells: CHO-K1 (ATCC-CCL-61), transient co-transfection
# T1 sequence (P04201 1-325): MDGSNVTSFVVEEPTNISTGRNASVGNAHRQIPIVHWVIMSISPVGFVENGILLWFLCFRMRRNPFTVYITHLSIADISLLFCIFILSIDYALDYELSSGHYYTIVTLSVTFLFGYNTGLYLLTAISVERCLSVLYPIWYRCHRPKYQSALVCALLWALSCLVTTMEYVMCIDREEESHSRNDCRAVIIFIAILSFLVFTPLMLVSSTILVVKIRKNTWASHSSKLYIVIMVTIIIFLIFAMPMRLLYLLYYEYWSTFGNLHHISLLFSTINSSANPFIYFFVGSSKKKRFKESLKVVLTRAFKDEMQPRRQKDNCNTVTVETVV
# Description: (§1) The assay was carried out in CHO cells were transiently transfected with the GPCR of choice, by utilizing the promiscuous Gα16 to divert signaling to the Gq pathway, thus enabling readout of GPCR activation by testing for Calcium flux as described by Liu et al 2003 (Biomol Screen 8, 39-49).
# (§2) All the peptides thus obtained were tested for their ability to change calcium flux in CHO—K1 cells (ATCC-CCL-61) transiently co-transfected with an expression vector containing the GPCR of choice and expression vector containing the Gα16 encoding cDNA. Expression constructs containing cDNA clones for MrgX1, MrgX2, Mas or FPRL1 were commercially obtained in one of the following expression vectors: pcDNA3.1, pCMV6, or MO2.
# (§3) Transient transfections were performed using CHO—K1 cells as host cells. Cells (12 million) were plated into T75 flasks on the day preceding transfection. Cells were transfected with the appropriate GPCR expression vector and with a vector expressing Gα16 using a lipid-based reagent, MTI, according to the manufacturer's recommendation. Cells were transfected for 5 hours, then re-plated into 96-well dishes (60,000 cells per well) and grown overnight.
# (§4) On the day of the experiment, cells were loaded with Fluo4-NW (Invitrogen) according to the manufacturer's recommendation. Plates were loaded into a FlexStation™ (Molecular Devices) plate reader and fluorescence was monitored. Seventeen seconds following initiation of reading, cells were stimulated with the indicated agonist/compound at final concentration of 1 μM. Each 96 well plate contained cells transfected with one GPCR expression vector and each of the examined peptides was tested in triplicate.
# (§5) We defined a hit as a peptide which elicited a clear and distinct increase in intracellular calcium that is clearly visible and statistically significant upon examination of the calcium trace for at least two repeats. The criterion for statistical significance was a p-value lower than 0.001 in a t-test comparing the levels of calcium before and after peptide addition.
# (§6) Based on dose response experiments, EC50 best fit values were calculated by non-linear regression of sigmoidal dose-response curves, using Prism version 4 (GraphPad Software Inc., San Diego, Calif.). The formulae for the sigmoidal dose-response curves was defined as Y=Bottom+(Top−Bottom)/(1+10^ (LogEC50−X)*HillSlope))
# The ability of Peptides to change calcium flux was examined in CHO—K1 cells co-transfected with Mas receptor and Gα16.
# [2] = system: aortic rings from Wistar rat; assay: Vasorelaxant activity in phenylephrine pre-contracted aortic rings; settings: for vasodilator effect in the presence of L-NAME: 100 μM L-NAME, NO synthase inhibitor; for vasodilator effect in the absence of functional endothelium: endothelium-denuded vessels; for Maximal values for the relaxant effect (Emax): mean±SEM
# Description: Male Wistar rats of the age of 13-14 weeks (body weight: 250 to 300 g) were used. The rats were exposed to light-dark cycle of 12 hs (day—06:00 to 18:00; night—18:00 to 06:00) controlled by timer. Rats were killed by decapitation and exsanguination and tissues were rapidly removed.
# Rings (3-4 mm) from the descending thoracic aorta, free of adipose and connective tissue, were set up in gassed (95% O2 and 5% CO2) Krebs-Henseleit solution (mmol/L): NaCl 110.8, KCl 5.9, NaHCO3 25.0, MgSO4 1.07, CaCl2 2.49, NaH2PO4 2.33 and glucose 11.51, at 37° C., under a tension of 1.0 g, for 1 hour to equilibrate. The presence of functional endothelium was assessed by the ability of Acetylcholine (1 μM) to induce more than 70% relaxation of vessels pre-contracted with phenylephrine (0.3 μM) (Lemos et al., 2005). When necessary, the endothelium was removed by rubbing the intimal surface with a wooden stick. Mechanical activity, recorded isometrically by a force transducer (Panlab, model number TR1210, Spain), was fed to an amplifier-recorder (Powerlab 4/20, ADInstruments, Inc.) and to a personal computer equipped with an analogue-to-digital converter board (AD16JR; World Precision Instruments, Inc.), using CVMS data acquisition/recording software (World Precision Instruments, Inc.).
# The vasorelaxant activity of peptides —P61_S (SEQ ID NO:10), P61 (SEQ ID NO.9)-dimer (P61_D), P33_V (SEQ ID NO:7) and P33 (SEQ ID NO:6)-dimer (P33_D) were measured in vessels (N=5-8) with or without functional endothelium pre-contracted to the same tension level (approximately 1.5 g of tension) induced by submaximal concentrations of phenylephrine (0.01 μM). For comparison, the effect of Ang-(1-7) was also tested (N=4)
# P61_S (SEQ ID NO:10), P61 (SEQ ID NO9)-dimer (P61_D), P33_V (SEQ ID NO:7) or P33 (SEQ ID NO:6)-dimer (P33_D) were added in increasing cumulative concentrations (0.0001 to 1 μM) once the response to phenylephrine had stabilized (FIG. 28). In order to verify the participation of endothelium-derived products in the relaxant effect of peptides, experiments were performed in the presence of 100 μM N′-Nitro-L-Arginine Methyl Ester-[L-NAME]—a nonselective inhibitor of nitric oxide synthase. In experiments performed in the presence of L-NAME, vessels were pre-contracted with 0.03 μM of phenylephrine, to achieve the same tension level as the others. L-NAME was added to the bath 20 min prior to the addition of phenylephrine.
# Results are presented as mean±SEM. Two-way analysis of variance (ANOVA) with Bonferroni multiple comparison post-test was used to compare concentration response curves obtained in aortic rings. The vasodilator effect of P61_S (SEQ ID NO:10), P61 (SEQ ID N09)-dimer (P61_D), P33_V (SEQ ID NO:7), P33 (SEQ ID NO:6)-dimer (P33_D) and Ang-(1-7) were expressed as percentage decrease in maximal contraction induced by phenylephrine. All statistical analyses were considered significant when p<0.05.
# [3] = biological target: T2, FPRL1 (Homo sapiens, UniProt P25090); assay: Calcium flux in CHO-K1 cells co-transfected with FPRL1 and Gα16; type: cell-based; parameters: expressed in transfected cells; host or cells: CHO-K1 (ATCC-CCL-61), transient co-transfection; settings: for ability to induce calcium flux, P33-derived peptides: 0.1, 1, 10, 100, 1000, 10000 nM; for calcium flux, P58 and derivatives: dose response
# T2 sequence (P25090 1-351): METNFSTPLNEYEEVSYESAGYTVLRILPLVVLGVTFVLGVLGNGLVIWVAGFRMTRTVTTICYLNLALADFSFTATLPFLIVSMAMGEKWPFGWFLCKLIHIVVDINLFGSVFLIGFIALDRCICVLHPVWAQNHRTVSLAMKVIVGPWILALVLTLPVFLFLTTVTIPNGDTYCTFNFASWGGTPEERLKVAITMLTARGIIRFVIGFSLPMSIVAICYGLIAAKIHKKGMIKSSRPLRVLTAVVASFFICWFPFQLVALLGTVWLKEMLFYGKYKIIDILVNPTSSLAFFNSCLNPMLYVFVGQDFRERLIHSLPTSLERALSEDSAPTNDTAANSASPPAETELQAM
# Description: as §1, §2, §3, §4, §5, §6
# The ability of Peptides to change calcium flux was examined in CHO—K1 cells co-transfected with FPRL1 and Gal 6.
# [4] = vessels with endothelium, 0.0001 to 1 μM cumulative
substance,measurement,setting,value
"Angiotensin 1-7 [Ang-(1-7), reference compound]",Ca response,"[1]; dose response experiment, data not shown",did not induce Ca response
same,vasodilator effect in the presence of L-NAME,[2],completely inhibited
same,vasodilator effect in the absence of functional endothelium,[2],abolished
same,Maximal values for the relaxant effect (Emax),[2]; [4],15.64±1.91%
same,Maximal values for the relaxant effect (Emax),[2]; vessels without endothelium,2.82±3.11%
IYLNRKRRGDPAFKRRLRD (listed as Homo sapiens) [P61—4],"ability to induce calcium flux, P61-related peptides compared",[1],somewhat weaker
SMCHRWSRAVLFPAAHRP [P33_dimer] (also: dimer via cysteine; listed as Homo sapiens) [Peptide P33_dimer],"ability to induce calcium flux, P33-derived peptides",[3],inactive
same,"ability to induce calcium flux, P33 monomer, dimer and derivatives compared",[1],superior to the monomeric peptides
same,vasodilator effect in the presence of L-NAME,[2],completely inhibited
same,vasodilator effect in the absence of functional endothelium,[2],completely inhibited
same,Maximal values for the relaxant effect (Emax),[2]; [4],17.78±3.43%
TIPMFVPESTSTLQ (listed as Homo sapiens) [P58—12],"calcium flux, P58 and derivatives",[3],did not induce calcium flux
TIPMFVPESTSTLQKFTSWFM-amide (TIPMFVPESTSTLQKFTSWFM-NH2; listed as Homo sapiens) [P58—10],"calcium flux, P58 and derivatives",[3],elicited calcium flux
RWSRAVLFPAAHRP (listed as Homo sapiens) [P33—8],"ability to induce calcium flux, P33-derived peptides",[3],failed to induce calcium flux
same,"ability to induce calcium flux, P33 monomer, dimer and derivatives compared",[1],"induced calcium flux, albeit at a somewhat lower degree compared to P33_V"
FLGYSIYLNRKRRGDPAFKRRLRD [Peptide P61_S],EC50,[1],≥ 0.5 µM
WSRAVLFPAAHRP (listed as Homo sapiens) [P33—10],"ability to induce calcium flux, P33-derived peptides",[3],failed to induce calcium flux
same,"ability to induce calcium flux, P33 monomer, dimer and derivatives compared",[1],"induced calcium flux, albeit at a somewhat lower degree compared to P33_V"
TIPMFVPESTSKLQ (listed as Homo sapiens) [P58—7],"calcium flux, P58 and derivatives",[3],did not induce calcium flux
TIPMFVPESTS (listed as Homo sapiens) [P58—6],"calcium flux, P58 and derivatives",[3],did not induce calcium flux
AVLFPAAHRP (listed as Homo sapiens) [P33—5],"ability to induce calcium flux, P33-derived peptides",[3],failed to induce calcium flux
same,"ability to induce calcium flux, P33 monomer, dimer and derivatives compared",[1],no activity
FAFLGYSIYLNRKRRGDPAF (listed as Homo sapiens) [P61—11S],"ability to induce calcium flux, P61-related peptides compared",[1],as potent as P61_S
"SMVHRWSRAVLFPAAHRP [Peptide P33_V, SMVHRWSRAVLFPAAHRP]",EC50,[1],≥ 1 µM
HRWSRAVLFPAAHRP (listed as Homo sapiens) [P33—9],"ability to induce calcium flux, P33-derived peptides",[3],failed to induce calcium flux
same,"ability to induce calcium flux, P33 monomer, dimer and derivatives compared",[1],"induced calcium flux, albeit at a somewhat lower degree compared to P33_V"
SMCHRWSRAVLFPAAHRP [Peptide P33_mono],"ability to induce calcium flux, P33-derived peptides",[3],similarly potent
same,"ability to induce calcium flux, P33 monomer, dimer and derivatives compared",[1],equally potent

# Reference: patent publication US8349801B2, “Peptide ligands for G-protein coupled receptors” (priority 2006, dated 2013)
